Test results: paper PMC9774438 (2022)

Assays:
pept_1545 [1] = target: T1, pept_1545 (synthetic construct); assay: Amplex Red peroxidase activity assay (varying Amplex Red, mixed inhibition)
T1 chain: FLIGKAIKRKFCLRSVWNA

Hm-AMP8 [2] = target: T2, Hm-AMP8 (synthetic construct); assay: as above
T2 chain: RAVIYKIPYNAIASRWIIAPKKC

pept_1545 [3] = target: T1, pept_1545; assay: Amplex Red peroxidase activity assay (varying H2O2, uncompetitive inhibition)
Hm-AMP8 [4] = target: T2, Hm-AMP8; assay: as above
pept_1545 [5] = target: T1, pept_1545; assay: Celestine Blue B chlorinating activity assay (varying Cl-, competitive inhibition)
Hm-AMP8 [6] = target: T2, Hm-AMP8; assay: Celestine Blue B chlorinating activity assay (varying Cl-, uncompetitive inhibition)
pept_1545 [7] = target: T1, pept_1545; assay: Celestine Blue B chlorinating activity assay (varying H2O2, uncompetitive inhibition)
Hm-AMP8 [8] = target: T2, Hm-AMP8; assay: as above

B1: Myeloperoxidase (protein)
chain: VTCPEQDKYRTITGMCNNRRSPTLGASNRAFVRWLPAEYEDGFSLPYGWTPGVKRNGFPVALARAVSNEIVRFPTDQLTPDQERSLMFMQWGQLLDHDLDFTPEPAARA
Ki (pept_1545 [1]): 48.3 µM | Ki (Hm-AMP8 [2]): 1100 nM | Ki (pept_1545 [3]): 52.8 µM | Ki (Hm-AMP8 [4]): 1790 nM | Ki (pept_1545 [5]): 19.5 µM | Ki (Hm-AMP8 [6]): 420 nM | Ki (pept_1545 [7]): 10.8 µM | Ki (Hm-AMP8 [8]): 280 nM
